Reference: publication PMC9237525, “Solution Structure of Tubuliform Spidroin N-Terminal Domain and Implications for pH Dependent Dimerization” (Frontiers in Molecular Biosciences, 2022)

Experiments:
[1] = target: Argiope argentata TuSp NT E37Q E82Q (Argiope argentata); experiment: SEC; Superdex 75 Increase 10/300 GL, 50 µl at 3 mg/ml, 20 mM NaOAc, 20 mM NaCl, pH 5.5
[2] = target: Argiope argentata TuSp NT E37Q E82Q E85Q (Argiope argentata); experiment: as above
[3] = target: Argiope argentata TuSp NT E37Q E82Q E85Q D130N (Argiope argentata); experiment: as above
[4] = target: the molecule itself; experiment: 15N NMR relaxation (rotational correlation time); pH 5.5; T1 and T2 of backbone amides, 800 MHz; molecular weight estimated from the correlation time

“Argiope argentata TuSp NT E37Q E82Q (domain or fragment)” gave a stoichiometry N [1] of 2.

Work on “Argiope argentata TuSp NT E37Q E82Q E85Q (domain or fragment)” yielded a stoichiometry N [2] of 2.

With “Argiope argentata TuSp NT E37Q E82Q E85Q D130N (domain or fragment)” the stoichiometry N [3] was 2.

B1: Argiope argentata tubuliform spidroin (TuSp 1) N-terminal domain, wild type (domain or fragment)
chain: AVTAVPSVFSSPNLASGFLQCLTFGIGNSPAFPTQEQQDLDAIAQVILNAVSTNTGATASARAQALSTALASSLTDLLIAESAESNYNNQLSELTGILSNCFIQTTGSDNPAFVSRIQSLISVLSQNTDVNIISTA
notes: Tubuliform spidroin 1 (TuSp 1) N-terminal domain, Argiope argentata; 136 residues (count printed for the A70E variant); Expressed from pET-32a-HisTrxHisNT; Intramolecular disulfide C22-C102; 15N- or 13C,15N-labelled for NMR; Calculated mass 14.1 kDa (monomer); also called TuSp NT; wt TuSp NT; not shown: His-Trx, N-terminal, cleaved
With B1 the “stoichiometry N” value [4] was 2.
